From patent US20170087188A1, “WNT INDUCED MOTILITY AND ENHANCED ENGRAFTMENT OF CELLS” (OTTAWA HOSPITAL RESEARCH INSTITUTE, priority 2014, published 2017)
Entries after “also recorded” stand apart in the source; their conditions may differ.

Assays:
β-catenin signaling = assay: TOP-flash luciferase reporter assay in C2C12 cells; type: cell-based; settings: different concentrations
Experimental: Different concentrations of Wnt7a were tested to exclude a dose dependent effect on β-catenin signaling, as measured by induction of TOP-flash activity in C2C12 cells.
The UBC-Fzd7-Flag (Fzd7-Flag), CMV-Fzd7-EYFP (Fzd7-YFP), CMV-Fzd3-EYFP (Fzd3-YFP), CMV-EYFP (YFP), CMV-EGFP-Rac1-wt (GFP-Rac1, 12980, Addgene), CMV-EGFP-Rac1-T17N (Rac1-DN, 12982, Addgene), CMV-EGFP-RhoA-T19N (RhoA-DN, 12967, Addgene) and CMV-EGFP-Cdc42-T17N (Cdc42-DN, 12976, Addgene) constructs have been described previously (Bentzinger et al., 2013a; Subauste et al., 2000; von Maltzahn et al., 2011). The Fzd7-tdtomato plasmid was generated by replacing the C-terminal YFP in Fzd7-YFP with tdTomato. For TOP-flash and FOP-flash the TCF reporter plasmid kit (17-285, Millipore) was used with the dual-luciferase reporter assay system (E1960, Promega). For normalization pGL4.74[hRluc/TK] (E6921, Promega) was cotransfected. For TOP-flash and FOP-flash assays the cells were transfected with GenJet lipofection reagent (SL100499, SignaGen). Otherwise, Lipofectamine 2000 (11668019, Life Technologies) was used for transfections.

mdx mice = assay: Transplantation of Wnt-treated satellite cells into TA of mdx mice; type: in vivo, mouse
Experimental: It is known that poor migration of myogenic cells upon intramuscular injection is a major hurdle for the development of cell based therapies for muscular dystrophy (Skuk et al., 2007). The present inventors tested whether satellite cells treated with Wnt7a ex vivo prior to transplantation would enhance engraftment. 10,000 satellite cells were isolated from Pax7-zsGreen mice by fluorescent activated cell sorting (Bosnakovski et al., 2008), treated with Wnt7a for 3 h; washed extensively; and transplanted into the TA of immunosuppressed dystrophin-deficient mdx mice that were injured with cardiotoxin 2 days before the procedure (FIG. 6A).
Transplantation of zsGreen-expressing satellite cells or myoblasts into mdx mice was performed as previously described (Bentzinger et al., 2013c). Before transplantation the cells were treated for 3 h with Wnt7a, Wnt5a, or Wnt3a (R&D Systems) at a concentration of 50 ng/mL for freshly isolated satellite cells or with 100 ng/mL for cultured cells. Myoblasts expressing tdTomato were transplanted into uninjured muscles of C57BL/6 mice that were implanted with an osmotic pump (Alzet) delivering FK506 (Sigma) at 2.5 mg/kg/day 3 days prior to the transplantations. In some experiments, the injection site was marked with blue fluorescent microspheres (2 μm, Life Technologies) that were added at a concentration of 1:100 (vol/vol) to the cell suspension. 10 μl of the cell-microsphere suspension was injected into the TA of each mouse using a Hamilton syringe.
Muscles frozen in liquid nitrogen were cut into 12 μm cross-sections. Cross-sections and cells were either fixed with ethanol (100%) or 2% PFA for 5 min, permeabilized with 0.1% Triton/0.1 M glycine/PBS for 10 min, blocked with 5% horse serum in PBS for several hours, and incubated with specific primary antibody in blocking buffer overnight at 4° C. Samples were subsequently washed with PBS and stained with appropriate fluorescently labeled secondary antibodies for 1 h at room temperature. After washing with PBS, samples were mounted with Permafluor (Fisher). Antibodies were as follows: chicken anti-GFP (Abcam, ab13970), mouse anti-Pax7 (DSHB), mouse anti-Dystrophin (7A10, DSHB), mouse anti-Rac1 (05-389, Millipore), mouse anti-Tubulin (Sigma, T9026), rabbit anti-Dvl2 (3224, Cell Signaling), rabbit anti-zsGreen (Clontech, 632474), rabbit anti-Laminin (Sigma, L9393), rabbit anti-HA (Millipore, 07-221).

B1: Wnt7a: non-canonical Wnt polypeptide (R&D Systems) used to treat or load myogenic cells (protein, UniProt O00755 32-349, looked up)
Protein Wnt-7a: LGASIICNKIPGLAPRQRAICQSRPDAIIVIGEGSQMGLDECQFQFRNGRWNCSALGERTVFGKELKVGSREAAFTYAIIAAGVAHAITAACTQGNLSDCGCDKEKQGQYHRDEGWKWGGCSADIRYGIGFAKVFVDAREIKQNARTLMNLHNNEAGRKILEENMKLECKCHGVSGSCTTKTCWTTLPQFRELGYVLKDKYNEAVHVEPVRASRNKRPTFLKIKKPLSYRKPMDTDLVYIEKSPNYCEEDPVTGSVGTQGRACNKTAPQASGCDLMCCGRGYNTHQYARVWQCNCKFHWCCYVKCNTCSERTEMYTCK
TOP-flash reporter activity (β-catenin signaling): does not activate the TOP-flash reporter at any tested concentration; also recorded: did not increase TOP-flash reporter activity
enhanced engraftment of zsGreen-expressing cells (mdx mice; 10,000 satellite cells treated 3 h (50 ng/mL), mdx TA, after 3 weeks, vs Veh.): 69%
numbers of endogenous satellite cells (mdx mice; Pax7+/zsGreen− cells in host mdx muscle, vs Veh.): not significantly changed; also recorded: not altered
hypertrophy of dystrophin-expressing myofibers (minimal feret) (mdx mice; myofibers fused with Wnt7a treated satellite cells, mdx TA): 116%
proportion of zsGreen+ engrafted cells that express Ki67 (mdx mice; satellite cells into mdx TA, vs Veh.): do not show more Ki67 staining; also recorded: did not alter
maximal distance between clusters of dystrophin-expressing myofibers (mdx mice; satellite cells treated 3 h, mdx TA, average): 3.7 mm
increase in number of myofibers expressing dystrophin (mdx mice; satellite cells treated 3 h, mdx TA, vs Veh.): 486%
